Experimental data reported in publication doi:10.1101/2020.10.21.348805 (bioRxiv, 2020).

Biological target: T1, GST-OsDMI3 (rice (Oryza sativa), UniProt Q6AVM3 1-516)
T1 sequence (looked up): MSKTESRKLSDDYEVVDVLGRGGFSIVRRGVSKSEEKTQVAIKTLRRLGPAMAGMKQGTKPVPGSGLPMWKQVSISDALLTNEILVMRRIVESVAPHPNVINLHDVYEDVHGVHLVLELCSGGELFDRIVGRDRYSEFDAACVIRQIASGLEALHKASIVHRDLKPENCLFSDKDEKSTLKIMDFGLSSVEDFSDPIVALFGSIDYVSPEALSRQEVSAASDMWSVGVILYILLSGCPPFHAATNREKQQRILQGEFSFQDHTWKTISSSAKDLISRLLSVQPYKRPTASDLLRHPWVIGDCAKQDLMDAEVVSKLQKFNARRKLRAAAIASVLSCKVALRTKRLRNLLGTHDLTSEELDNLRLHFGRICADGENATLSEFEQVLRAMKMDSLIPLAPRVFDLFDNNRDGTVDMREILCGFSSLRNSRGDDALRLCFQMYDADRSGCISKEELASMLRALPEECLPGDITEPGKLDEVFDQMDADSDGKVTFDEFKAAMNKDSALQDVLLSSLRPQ
Assay: pull-down

- binding result: binds
B1: His-OsMKK6 (enzyme, rice (Oryza sativa), UniProt Q5QN75 1-355, looked up)
chain: MRGKKPHKELKLSVPAQETPVDKFLTASGTFKDGELRLNQRGLQLISEETADEPQSTNLKVEDVQLSMDDLEMIQVIGKGSGGIVQLVRHKWVGTLYALKGIQMNIQEAVRKQIVQELKINQATQNAHIVLCHQSFYHNGVIYLVLEYMDRGSLADIIKQVKTILEPYLAVLCKQVLEGLLYLHHERHVIHRDIKPSNLLVNRKGEVKITDFGVSAVLASSMGQRDTFVGTYNYMAPERISGSSYDYKSDIWSLGLVILECAIGRFPYIPSEGEGWLSFYELLEAIVDQPPPSAPADQFSPEFCAFISSCIQKDPAERMSASELLNHPFIKKFEDKDLDLRILVESLEPPMNISE
